Results taken from article PMC9187738.

Biological target: hamster JUNO (hamster)
Assay: live imaging-based adhesion molecule (LIAM) assay; BHK cells, non-inducible expression (cytomegalovirus promoter); separately transfected cells mixed in equal amounts 4 h after transfection, incubated 20 h, imaged every 6 min for 12 h at 40x, 37 °C, 5% CO2; read-outs: accumulation at the cell interface and translocation to the opposite cell, % of contacting cell pairs

B1: mouse IZUMO1-Venus (natural protein)
chain: CIKCDQFVTDALKTFENTYLNDHLPHDIHKNVMRMVNHEVSSFGVVTSAEDSYLGAVDENTLEQATWSFLKDLKRITDSDLKGELFIKELLWMLRHQKDIFNNLARQFQKEVLCPNKCGVMSQTLIWCLKCEKQLHICRKSLDCGERHIEVHRSEDLVLDCLLSWHRASKGLTDYSFYRVWENSSETLIAKGKEPYLTKSMVGPEDAGNYRCVLDTINQGHATVIRYDVTVLPPKHSEENQPPNIITQEEHETPVHVTPQTPPGQEPESELYPELHPELYPELIPTVAQNPEKKMKTRLLILLTLGFVVLVASIIISVLHFRKVSAKLKNASDEVKPTASGSKSDQSLSQQMGLKKASQADFNSDYSGDKSEATEN
IZUMO1 accumulation (% of contacting cell pairs): 78%
